# Test results reported in US20230250154A1.
# Changes are numbered by the printed parent chain. Names may count otherwise.
# B1: Variant A2M, bait region SEQ ID NO 136, P01023 24-1474 (protein)
# chain: SVSGKPQYMVLVPSLLHTETTEKGCVLLSYLNETVTVSASLESVRGNRSLFTDLEAENDVLHCVAFAVPKSSSNEEVMFLTVQVKGPTQEFKKRTTVMVKNEDSLVFVQTDKSIYKPGQTVKFRVVSMDENFHPLNELIPLVYIQDPKGNRIAQWQSFQLEGGLKQFSFPLSSEPFQGSYKVVVQKKSGGRTEHPFTVEEFVLPKFEVQVTVPKIITILEEEMNVSVCGLYTYGKPVPGHVTVSICRKYSDASDCHGEDSQAFCEKFSGQLNSHGCFYQQVKTKVFQLKRKEYEMKLHTEAQIQEEGTVVELTGRQSSEITRTITKLSFVKVDSHFRQGIPFFGQVRLVDGKGVPIPNKVIFIRGNEANYYSNATTDEHGLVQFSINTTNVMGTSLTVRVNYKDRSPCYGYQWVSEEHEEAHHTAYLVFSPSKSFVHLEPMSHELPCGHTQTVQAHYILNGGTLLGLKKLSFYYLIMAKGGIVRTGTHGLLVKQEDMKGHFSISIPVKSDIAPVARLLIYAVLPTGDVIGDSAKYDVENCLANKVDLSFSPSQSLPASHAHLRVTAAPQSVCALRAVDQSVLLMKPDAELSASSVYNLLPEKDLTGFPGPLNDQDDEDCINRHNVYINGITYTPVSSTNEKDMYSFLEDMGLKAFTNSKIRKPKMCPQLEQYEMHGPKEEEGLGSIPENFFGVSELEGRGSEGEGEGEGVEEPHTKLRKYFPETWIWDLVVVNSAGVAEVGVTVPDTITEWKAGAFCLSEDAGLGISSTASLRAFQPFFVELTMPYSVIRGEAFTLKATVLNYLPKCIRVSVQLEASPAFLAVPVEKEQAPHCICANGRQTVSWAVTPKSLGNVNFTVSAEALESQELCGTEVPSVPEHGRKDTVIKPLLVEPEGLEKETTFNSLLCPSGGEVSEELSLKLPPNVVEESARASVSVLGDILGSAMQNTQNLLQMPYGCGEQNMVLFAPNIYVLDYLNETQQLTPEIKSKAIGYLNTGYQRQLNYKHYDGSYSTFGERYGRNQGNTWLTAFVLKTFAQARAYIFIDEAHITQALIWLSQRQKDNGCFRSSGSLLNNAIKGGVEDEVTLSAYITIALLEIPLTVTHPVVRNALFCLESAWKTAQEGDHGSHVYTKALLAYAFALAGNQDKRKEVLKSLNEEAVKKDNSVHWERPQKPKAPVGHFYEPQAPSAEVEMTSYVLLAYLTAQPAPTSEDLTSATNIVKWITKQQNAQGGFSSTQDTVVALHALSKYGAATFTRTGKAAQVTIQSSGTFSSKFQVDNNNRLLLQQVSLPELPGEYSMKVTGEGCVYLQTSLKYNILPEKEEFPFALGVQTLPQTCDEPKAHTSFQISLSVSYTGSRSASNMAIVDVKMVSGFIPLKPTVKMLERSNHVSRTEVSSNHVLIYLDKVSNQTLSLFFTVLQDVPVRDLKPAIVKVYDYYETDEFAIAEYNAPCSKDLGNADYKDDDDKGASHHHHHH
# B2: Variant A2M, bait region SEQ ID NO 139, P01023 24-1474 (protein)
# chain: SVSGKPQYMVLVPSLLHTETTEKGCVLLSYLNETVTVSASLESVRGNRSLFTDLEAENDVLHCVAFAVPKSSSNEEVMFLTVQVKGPTQEFKKRTTVMVKNEDSLVFVQTDKSIYKPGQTVKFRVVSMDENFHPLNELIPLVYIQDPKGNRIAQWQSFQLEGGLKQFSFPLSSEPFQGSYKVVVQKKSGGRTEHPFTVEEFVLPKFEVQVTVPKIITILEEEMNVSVCGLYTYGKPVPGHVTVSICRKYSDASDCHGEDSQAFCEKFSGQLNSHGCFYQQVKTKVFQLKRKEYEMKLHTEAQIQEEGTVVELTGRQSSEITRTITKLSFVKVDSHFRQGIPFFGQVRLVDGKGVPIPNKVIFIRGNEANYYSNATTDEHGLVQFSINTTNVMGTSLTVRVNYKDRSPCYGYQWVSEEHEEAHHTAYLVFSPSKSFVHLEPMSHELPCGHTQTVQAHYILNGGTLLGLKKLSFYYLIMAKGGIVRTGTHGLLVKQEDMKGHFSISIPVKSDIAPVARLLIYAVLPTGDVIGDSAKYDVENCLANKVDLSFSPSQSLPASHAHLRVTAAPQSVCALRAVDQSVLLMKPDAELSASSVYNLLPEKDLTGFPGPLNDQDDEDCINRHNVYINGITYTPVSSTNEKDMYSFLEDMGLKAFTNSKIRKPKMCPQLEQYEMHGPSEDLVVQIEGEGEGEGIPENFFGVEAIPMSIPTEPHTKLRKYFPETWIWDLVVVNSAGVAEVGVTVPDTITEWKAGAFCLSEDAGLGISSTASLRAFQPFFVELTMPYSVIRGEAFTLKATVLNYLPKCIRVSVQLEASPAFLAVPVEKEQAPHCICANGRQTVSWAVTPKSLGNVNFTVSAEALESQELCGTEVPSVPEHGRKDTVIKPLLVEPEGLEKETTFNSLLCPSGGEVSEELSLKLPPNVVEESARASVSVLGDILGSAMQNTQNLLQMPYGCGEQNMVLFAPNIYVLDYLNETQQLTPEIKSKAIGYLNTGYQRQLNYKHYDGSYSTFGERYGRNQGNTWLTAFVLKTFAQARAYIFIDEAHITQALIWLSQRQKDNGCFRSSGSLLNNAIKGGVEDEVTLSAYITIALLEIPLTVTHPVVRNALFCLESAWKTAQEGDHGSHVYTKALLAYAFALAGNQDKRKEVLKSLNEEAVKKDNSVHWERPQKPKAPVGHFYEPQAPSAEVEMTSYVLLAYLTAQPAPTSEDLTSATNIVKWITKQQNAQGGFSSTQDTVVALHALSKYGAATFTRTGKAAQVTIQSSGTFSSKFQVDNNNRLLLQQVSLPELPGEYSMKVTGEGCVYLQTSLKYNILPEKEEFPFALGVQTLPQTCDEPKAHTSFQISLSVSYTGSRSASNMAIVDVKMVSGFIPLKPTVKMLERSNHVSRTEVSSNHVLIYLDKVSNQTLSLFFTVLQDVPVRDLKPAIVKVYDYYETDEFAIAEYNAPCSKDLGNADYKDDDDKGASHHHHHH
# B3: Variant A2M, bait region SEQ ID NO 137, P01023 24-1474 (protein)
# chain: SVSGKPQYMVLVPSLLHTETTEKGCVLLSYLNETVTVSASLESVRGNRSLFTDLEAENDVLHCVAFAVPKSSSNEEVMFLTVQVKGPTQEFKKRTTVMVKNEDSLVFVQTDKSIYKPGQTVKFRVVSMDENFHPLNELIPLVYIQDPKGNRIAQWQSFQLEGGLKQFSFPLSSEPFQGSYKVVVQKKSGGRTEHPFTVEEFVLPKFEVQVTVPKIITILEEEMNVSVCGLYTYGKPVPGHVTVSICRKYSDASDCHGEDSQAFCEKFSGQLNSHGCFYQQVKTKVFQLKRKEYEMKLHTEAQIQEEGTVVELTGRQSSEITRTITKLSFVKVDSHFRQGIPFFGQVRLVDGKGVPIPNKVIFIRGNEANYYSNATTDEHGLVQFSINTTNVMGTSLTVRVNYKDRSPCYGYQWVSEEHEEAHHTAYLVFSPSKSFVHLEPMSHELPCGHTQTVQAHYILNGGTLLGLKKLSFYYLIMAKGGIVRTGTHGLLVKQEDMKGHFSISIPVKSDIAPVARLLIYAVLPTGDVIGDSAKYDVENCLANKVDLSFSPSQSLPASHAHLRVTAAPQSVCALRAVDQSVLLMKPDAELSASSVYNLLPEKDLTGFPGPLNDQDDEDCINRHNVYINGITYTPVSSTNEKDMYSFLEDMGLKAFTNSKIRKPKMCPQLEQYEMHGPSEDLVVQIKEEEGLGSIPENFFGVSELEGRGSVEEPHTKLRKYFPETWIWDLVVVNSAGVAEVGVTVPDTITEWKAGAFCLSEDAGLGISSTASLRAFQPFFVELTMPYSVIRGEAFTLKATVLNYLPKCIRVSVQLEASPAFLAVPVEKEQAPHCICANGRQTVSWAVTPKSLGNVNFTVSAEALESQELCGTEVPSVPEHGRKDTVIKPLLVEPEGLEKETTFNSLLCPSGGEVSEELSLKLPPNVVEESARASVSVLGDILGSAMQNTQNLLQMPYGCGEQNMVLFAPNIYVLDYLNETQQLTPEIKSKAIGYLNTGYQRQLNYKHYDGSYSTFGERYGRNQGNTWLTAFVLKTFAQARAYIFIDEAHITQALIWLSQRQKDNGCFRSSGSLLNNAIKGGVEDEVTLSAYITIALLEIPLTVTHPVVRNALFCLESAWKTAQEGDHGSHVYTKALLAYAFALAGNQDKRKEVLKSLNEEAVKKDNSVHWERPQKPKAPVGHFYEPQAPSAEVEMTSYVLLAYLTAQPAPTSEDLTSATNIVKWITKQQNAQGGFSSTQDTVVALHALSKYGAATFTRTGKAAQVTIQSSGTFSSKFQVDNNNRLLLQQVSLPELPGEYSMKVTGEGCVYLQTSLKYNILPEKEEFPFALGVQTLPQTCDEPKAHTSFQISLSVSYTGSRSASNMAIVDVKMVSGFIPLKPTVKMLERSNHVSRTEVSSNHVLIYLDKVSNQTLSLFFTVLQDVPVRDLKPAIVKVYDYYETDEFAIAEYNAPCSKDLGNADYKDDDDKGASHHHHHH
# B4: Variant A2M, bait region SEQ ID NO 138, P01023 24-1474 (protein)
# chain: B3 chain with K686E, E687G, E689G, G690E, L691G, G692E, S693G, S702K, L704E, R707L
# B5: Variant A2M, bait region SEQ ID NO 142, P01023 24-1474 (protein)
# chain: SVSGKPQYMVLVPSLLHTETTEKGCVLLSYLNETVTVSASLESVRGNRSLFTDLEAENDVLHCVAFAVPKSSSNEEVMFLTVQVKGPTQEFKKRTTVMVKNEDSLVFVQTDKSIYKPGQTVKFRVVSMDENFHPLNELIPLVYIQDPKGNRIAQWQSFQLEGGLKQFSFPLSSEPFQGSYKVVVQKKSGGRTEHPFTVEEFVLPKFEVQVTVPKIITILEEEMNVSVCGLYTYGKPVPGHVTVSICRKYSDASDCHGEDSQAFCEKFSGQLNSHGCFYQQVKTKVFQLKRKEYEMKLHTEAQIQEEGTVVELTGRQSSEITRTITKLSFVKVDSHFRQGIPFFGQVRLVDGKGVPIPNKVIFIRGNEANYYSNATTDEHGLVQFSINTTNVMGTSLTVRVNYKDRSPCYGYQWVSEEHEEAHHTAYLVFSPSKSFVHLEPMSHELPCGHTQTVQAHYILNGGTLLGLKKLSFYYLIMAKGGIVRTGTHGLLVKQEDMKGHFSISIPVKSDIAPVARLLIYAVLPTGDVIGDSAKYDVENCLANKVDLSFSPSQSLPASHAHLRVTAAPQSVCALRAVDQSVLLMKPDAELSASSVYNLLPEKDLTGFPGPLNDQDDEDCINRHNVYINGITYTPVSSTNEKDMYSFLEDMGLKAFTNSKIRKPKMCPQLEQYEMHGPSELEGRGSIPENFFGVEGEGEGEGKEEEGLGSVEEPHTKLRKYFPETWIWDLVVVNSAGVAEVGVTVPDTITEWKAGAFCLSEDAGLGISSTASLRAFQPFFVELTMPYSVIRGEAFTLKATVLNYLPKCIRVSVQLEASPAFLAVPVEKEQAPHCICANGRQTVSWAVTPKSLGNVNFTVSAEALESQELCGTEVPSVPEHGRKDTVIKPLLVEPEGLEKETTFNSLLCPSGGEVSEELSLKLPPNVVEESARASVSVLGDILGSAMQNTQNLLQMPYGCGEQNMVLFAPNIYVLDYLNETQQLTPEIKSKAIGYLNTGYQRQLNYKHYDGSYSTFGERYGRNQGNTWLTAFVLKTFAQARAYIFIDEAHITQALIWLSQRQKDNGCFRSSGSLLNNAIKGGVEDEVTLSAYITIALLEIPLTVTHPVVRNALFCLESAWKTAQEGDHGSHVYTKALLAYAFALAGNQDKRKEVLKSLNEEAVKKDNSVHWERPQKPKAPVGHFYEPQAPSAEVEMTSYVLLAYLTAQPAPTSEDLTSATNIVKWITKQQNAQGGFSSTQDTVVALHALSKYGAATFTRTGKAAQVTIQSSGTFSSKFQVDNNNRLLLQQVSLPELPGEYSMKVTGEGCVYLQTSLKYNILPEKEEFPFALGVQTLPQTCDEPKAHTSFQISLSVSYTGSRSASNMAIVDVKMVSGFIPLKPTVKMLERSNHVSRTEVSSNHVLIYLDKVSNQTLSLFFTVLQDVPVRDLKPAIVKVYDYYETDEFAIAEYNAPCSKDLGNADYKDDDDKGASHHHHHH
# Target: Protease Mixtures
# Assay: cell-based or functional assay
"Protease Inhibition (% of WT); Protease Mixtures, Collagen Substrate","Protease Inhibition (% of WT); Protease Mixtures, IGD Substrate",Binder
170 % of WT,215 % of WT,B1
,190 % of WT,B2
,140 % of WT,B3
,210 % of WT,B4
,140 % of WT,B5
